# Assay results taken from the DeepSol protein solubility set.
# Test: soluble on expression in E. coli; label from the status in PepcDB or PDB records
row,Sequence,soluble on expression in E. coli
1,MKEIDIIQQIKLGEVSKVQFKERLLDNYDIGCELVAFSNARGGTLVVGAVDKTGNINPLSYLEVQETTNTLSNIASENVVPAILVDVETISVDGGSLVVAHIKEGLNKPYHDNRGIVWVKNGADKRKVFDNAELAEMMTDCGSFSPDEAGVRDATIKDLDEGTIKTFLSNKFDKVLARKGLVGDAFREASLDTVCSAIASGHNGEKLLRNLRFIRPDGKITVAAMLLFGKYTQRWLPMMTAKCICFVGNNLGGTQFRDKVNDADIEGNLLHQFETIMDFFTRNLRHIQVGNEFNSQGVLEIPYTSLVEFTVNALVHRSLNATAPIRIFIFDDRVEIHSPGILPNGLTVDDIVIGTSMPRNMFLFTNAIHLLPYTGAGSGMLRALSEDVNVSFTNNDRTNEFVITINRQISNQPNADSDTDLDTDSDTFNADSDTKLRYSDTDLDTDSDTFNADSDTIRPKITNKQRDIVNFCSVPRSSKEILERVGVTYHSKNIQTYIMSLIEAGYLEMTNPEHPNASNQKYRRSKKLEHHHHHH,soluble
2,AKGRAGRSKRTEQDHYETDYTTGGESCDELEEDWIREYPPITSDQQRQLYKRNFDTGLQEYKSLQSVLDEINKELSRLDKELDDYREESEEYMAAADEYNRLKQVKGSADYKSKKNHCKQLKSKLSHIKKMVGDYDRQKT,soluble
3,MTISELLQYCMAKPGAEQSVHNDWKATQIKVEDVLFAMVKEVENRPAVSLKTSPELAELLRQQHSDVRPSRHLNKAHWSTVYLDGSLPDSQIYYLVDASYQQAVNLLPEEKRKLLVQL,not soluble
4,DEFQWKGLPVVKSGLDVGGMPTGTRYHRSPAWPEEQPGETHAPAPFGSGDKRYTFSQTEMLVNGLKPYTEPTAGVPPQLLSRAVTHVRSYIETIIGTHRSPVLTYHQACELLERTTSCGPFVQGLKGDYWDEEQQQYTGVLANHLEQAWDKANKGIAPRNAYKLALKDELRPIEKNKAGKRRLLWGCDAATTLIATAAFKAVATRLQVVTPMTPVAVGINMDSVQMQVMNDSLKGGVLYCLDYSKWDSTQNPAVTAASLAILERFAEPHPIVSCAIEALSSPAEGYVNDIKFVTRGGLPSGMPFTSVVNSINHMIYVAAAILQAYESHNVPYTGNVFQVETIHTYGDDCMYSVCPATASIFHTVLANLTSYGLKPTAADKSDAIKPTNTPVFLKRTFTQTPHGIRALLDITSITRQFYWLKANRTSDPSSPPAFDRQARSAQLENALAYASQHGPVMFDTVRQIAIKTAQGEGLVLVNTNYDQALATYNAWFIGGTVPDPVGHTEGTHKIVFEME,soluble
5,MKPSMEKVLLQIALDLSSNLSSDLHYQRLINSIHQVFPCDASALFILDNDHCLKPVAVKGLSQAVLGRCFPPQVHPRLEAILQSKHPVRFESNSDLPDPFDGLLLVDENINIEVHDCLGCSLYVDDTLVGVLTLDALEVGAFKKIDDITIETFAALAAATLHNKALIKTLQDSNQQQKSINQTLI,not soluble
6,MGSDKIHHHHHHMSAVTESVLESIISPVTMSEFLEEYWPVKPLVARGEVERFTSIPGFEKVRTLENVLAIYNNPVMVVGDAVIEESEGITDRFLVSPAEALEWYEKGAALEFDFTDLFIPQVRRWIEKLKAELRLPAGTSSKAIVYAAKNGGGFKAHFDAYTNLIFQIQGEKTWKLAKNENVSNPMQHYDLSEAPYYPDDLQSYWKGDPPKEDLPDAEIVNLTPGTMLYLPRGLWHSTKSDQATLALNITFGQPAWLDLMLAALRKKLISDNRFRELAVNHQSLHESSKSELNGYLESLIQTLSENAETLTPEQIFQSQDSDFDPYQSTQLVFRQLLTSYKF,soluble
7,MGSDKIHHHHHHVTVHGLPAPSADTALYQSIMEAGFTAFPERLANWRRFKAAQRGERLDYLPVKLDVEHVSRCNYRCTMCQVSDWPKMTRAADMTVGDFKSLLEQQIGVVEIKLQGMGEPLLAAESFFEMIRHARERHIWVRATTNGSLLHIKENYKGLVESDICEIQVSIDGARPETYEAIRRGGKFERVAENCRLLNAHAAQDGRERTRMWVVVQQGNLADLDLLPKAAAEMGFKRLTLSLDLTSWGQETWERNNEALDAHDLLPVEKAWALVEEGKRLGVEVTFWAIDSKYDWSDPAKLCPWPFERAYIASDMRVVPCCMIANPDVLDMGDARDLTGVWTGERMAEFRRAHLEGRIPEVCNSCYRDPPAP,not soluble
8,DVQINIRNNVYIPPCTINNGQNIVVDFGNINPEHVDNSRGEVTKTISISCPYKSGSLWIKVTGNTMGGGQNNVLATNITHFGIALYQGKGMSTPLTLGNGSGNGYRVTAGLDTARSTFTFTSVPFRNGSGILNGGDFRTTASMSMIYN,soluble
